# Measured values taken from patent US20110076272A1, “THERAPEUTIC METHODS AND COMPOSITIONS” (priority 2009, published 2011).
# Read-outs that look alike come from different tables or passages of the source.
# B1: AB0023: mouse anti-human LOXL2 monoclonal antibody; heavy chain variable region SEQ ID NO:1, light chain variable region SEQ ID NO:2 (antibody, listed as Mus musculus, V domains shown)
# VH: MEWSRVFIFLLSVTAGVHSQVQLQQSGAELVRPGTSVKVSCKASGYAFTYYLIEWVKQRPGQGLEWIGVINPGSGGTNYNEKFKGKATLTADKSSSTAYMQLSSLTSDDSAVYFCARNWMNFDYWGQGTTLTVSS
# VL: MRCLAEFLGLLVLWIPGAIGDIVMTQAAPSVSVTPGESVSISCRSSKSLLHSNGNTYLYWFLQRPGQSPQFLIYRMSNLASGVPDRFSGSGSGTAFTLRISRVEAEDVGVYYCMQHLEYPYTFGGGTKLEIK
# modifications: Heavy chain; Light chain
# Experiments:
# [1] = tested on: human umbilical vein endothelial cells (HUVEC); test: In vitro HUVEC tube formation assay; assay type: cell-based; conditions: for IC50: CD31 staining, day 11
# Protocol: Human umbilical vein endothelial cells (HUVECs) were plated on a feeder layer of fibroblasts and cultured in 24-well plates in Lonza EBM-2 medium (a basal medium developed for normal human endothelial cells in a low-serum environment) supplemented with hEGF, Hydrocortisone, GA-1000 (Gentamicin, Amphotericin-B), FBS (Fetal Bovine Serum) 10 ml (2% final), VEGF, hFGF-B, R3-IGF-1, Ascorbic Acid and heparin. […] At this point (day 1), 0.5 ml of fresh endothelial cell growth medium containing no additions (control), anti-LOXL2 antibody AB0023, or suramin was added to the wells. The plate was then cultured at 37° C. and 5% CO2. On days 4, 7 and 9 the medium was removed from all wells and carefully replaced with 0.5 ml of fresh medium containing the additions listed above. On day 11, the plates were fixed and tubules were assayed for CD31 expression as follows. Wells were washed with 1 ml PBS and fixed with 1 ml ice cold 70% ethanol for 30 minutes at room temperature. Cells were then incubated, for 60 minutes at 37° C., with 0.5 ml mouse anti-human CD31 antibody diluted 1:400 in PBS containing 1% BSA. Wells were then washed three times with 1 ml PBS, followed by incubation for 60 minutes at 37° C. with 0.5 ml alkaline phosphatase-conjugated goat anti-mouse IgG secondary antibody diluted 1:500 in PBS containing 1% BSA. Wells were washed a further three times with 1 ml PBS prior to incubation for 10 minutes at 37° C. with 0.5 ml freshly prepared and filtered BCIP/NBT substrate. Wells were then carefully washed three times with 1 ml distilled water and left to air dry overnight.
# Digital images of each well were taken using a Nikon Coolpix camera on a Leica inverted microscope at 10× magnification. Four random fields per well were imaged, producing 96 images in total. Images were then converted to BMP files and imported into an image analysis package to measure number of vessel branches, number of vessels and total vessel length. […]
# MDA-MB-231 cells = test: Disseminated bone metastasis model, MDA-MB-231 cells injected in the left ventricle; assay type: in vivo, mouse
# Protocol: The therapeutic consequences of inhibiting either LOXL2 or LOX were assessed in a model of disseminated bone metastasis. Specific antibodies targeting LOXL2 or LOX were used to treat mice injected in the left ventricle with ˜1 million labeled MDA-MB-231 cells. The breast tumor cell line MDA-MB-231 has been widely used as a model to study LOX, and expresses all 5 lysyl oxidase-type enzymes (FIG. 11, panel A). The ability of LOXL2 inhibitory antibody AB0023 to reduce tumor burden was compared to LOX-specific antibody M64, which is a monoclonal antibody targeting the same peptide sequence in the LOX enzymatic domain previously described as generating an inhibitory polyclonal antiserum.
# MCF7 cells = test: Induction of EMT-like phenotype by LOXL2-containing conditioned media (rhodamine-phalloidin staining); assay type: cell-based; conditions: MDA-MB231 or Hs-578t conditioned media; BAPN up to 2 mM
# Protocol: Cells were seeded at 80% confluency, in an 8-chambered slide, 24 hours prior to the day of staining. After 24 hours, media was aspirated and the chambers were washed with PBS. Cells were then fixed with 4% Parafomaldehyde (PFA) for 20 minutes at room temperature and then permeabilized with 0.5% Saponin (JT Baker, Phillipsburg, N.J.) for 5 minutes at room temperature. Cells were then stained for 15 minutes at room temperature with a 1:100 dilution of rhodamine phalloidin (Invitrogen, Carlsbad, Calif.). Slides were mounted with Vectashield (Vector Laboratories, Burlingame, Calif.).
# MCF7 or SW620 cells were seeded at 50,000 cells per well of an 8-chambered culture slide in HGDMEM (high-glucose Dulbecco's modified Eagle's medium containing 4.5 g/l glucose)+10% FBS, 2 mM L-glutamine, 24 hours prior to being exposed to conditioned medium (CM). 500 uls of fresh conditioned medium from MDA MB 231 cells was added to the chambers containing MCF7 cells. The cells were incubated with the CM for 48-96 hours. Conditioned medium from MCF7 or SW620 cells was used as a negative control. After 48-96 hours incubation with CM, the cells were stained with rhodamine-phalloidin as described above.
# [2] = Repeat-dose tolerability in mice; conditions: 50 mg/kg twice per week for 14 weeks
molecule,measurement,setting,value
B1,"inhibition of vessel branching, vessel length and total number of vessels",[1]; 50 ug/ml,complete inhibition
same,IC50,[1]; read-out: IC50 for inhibition of number of vessels (FIG. 4 Panel H),19.9 nM
same,IC50,"[1]; read-out: IC50 for inhibition of vessel branching (mean number of branching points, FIG. 4 Panel G)",22.2 nM
same,"reduction in tumor cell burden in the femurs, by median value","MDA-MB-231 cells; day 28, p=0.0021",127 fold
same,"reduction in tumor cell burden in total ventral bone, by median value","MDA-MB-231 cells; day 28, p=0.0197",28 fold
same,survival,"MDA-MB-231 cells; separate study, 30 mg/kg AB0023 twice weekly in combination with 5 mg/kg Paclitaxel once per week, p=0.025",significant survival benefit
same,remodeling of the actin cytoskeleton induced by LOXL2-containing conditioned media,MCF7 cells,abrogated
same,tolerability,[2],well-tolerated
